Measured values: the supplement of paper PMC9112550, “Optimization of the antimicrobial peptide Bac7 by deep mutational scanning” (BMC Biology, 2022)

Each sequence was assayed on Escherichia coli TOP10 (assay: shrunken log2 fold change of peptide-encoding DNA abundance (4.5 h post-induction vs induction); higher = less antimicrobial activity (less host growth inhibition)). Conditions: time post-induction: 4.5 h; library: site-saturation at positions 5, 18, 19, 20.
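Also: peptides expressed intracellularly from a pBAD plasmid library in pooled LB shake-flask culture, induced with 0.3% L-arabinose, DNA abundance read by NGS, three biological replicates, DESeq2 with apeglm shrinkage.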

Row | Sequence | shrunken log2 fold change
1 | RRIRHRPPRLPRPRPRPTDPPRP | 0.138
2 | RRIRERPPRLPRPRPRPEMPPRP | 0.112
3 | RRIRKRPPRLPRPRPRPFIHPRP | -0.0282
4 | RRIRNRPPRLPRPRPRPEIGPRP | 0.195
5 | RRIRKRPPRLPRPRPRPIWIPRP | -0.0325
6 | RRIRIRPPRLPRPRPRPAFHPRP | -0.2
7 | RRIRRRPPRLPRPRPRPEFWPRP | 0.736
8 | RRIRARPPRLPRPRPRPMRYPRP | -0.179
9 | RRIRHRPPRLPRPRPRPCFPPRP | -0.517
10 | RRIRARPPRLPRPRPRPWLRPRP | 0.228
11 | RRIRSRPPRLPRPRPRPHHPPRP | -0.369
12 | RRIRFRPPRLPRPRPRPAVCPRP | 0.925
13 | RRIRRRPPRLPRPRPRPQAWPRP | 0.0536
14 | RRIRWRPPRLPRPRPRPEQEPRP | 0.0529
15 | RRIRARPPRLPRPRPRPQFEPRP | -0.102
16 | RRIRFRPPRLPRPRPRPAIPPRP | -0.0151
17 | RRIRTRPPRLPRPRPRPGVMPRP | 0.0539
18 | RRIRIRPPRLPRPRPRPTNNPRP | -0.629
19 | RRIRWRPPRLPRPRPRPDKIPRP | -0.0504
20 | RRIRERPPRLPRPRPRPRICPRP | -0.111
21 | RRIRSRPPRLPRPRPRPTNPPRP | -0.0555
22 | RRIRKRPPRLPRPRPRPAFQPRP | 0.107
23 | RRIRMRPPRLPRPRPRPKYLPRP | -0.278
24 | RRIRYRPPRLPRPRPRPEFGPRP | 0.113
25 | RRIRKRPPRLPRPRPRPCDSPRP | -0.212

Row | Sequence | shrunken log2 fold change
26 | RRIRRRPPRLPRPRPRPSHPPRP | 0.167
27 | RRIRTRPPRLPRPRPRPPICPRP | 0.0623
28 | RRIRNRPPRLPRPRPRPCSSPRP | -0.0135
29 | RRIRSRPPRLPRPRPRPCMLPRP | -0.472
30 | RRIRQRPPRLPRPRPRPVASPRP | -0.0704
31 | RRIRRRPPRLPRPRPRPCITPRP | -0.846
32 | RRIRWRPPRLPRPRPRPSDHPRP | -0.474
33 | RRIRKRPPRLPRPRPRPSRYPRP | 0.086
34 | RRIRWRPPRLPRPRPRPTDTPRP | -0.0769
35 | RRIRFRPPRLPRPRPRPHHDPRP | -0.379
36 | RRIRPRPPRLPRPRPRPSLIPRP | -0.181
37 | RRIRWRPPRLPRPRPRPWKLPRP | -0.00166
38 | RRIRIRPPRLPRPRPRPSEDPRP | -0.212
39 | RRIRQRPPRLPRPRPRPEEIPRP | 0.0447
40 | RRIRWRPPRLPRPRPRPGTNPRP | 0.243
41 | RRIRTRPPRLPRPRPRPYLYPRP | -0.702
42 | RRIRCRPPRLPRPRPRPKNVPRP | -0.258
43 | RRIRWRPPRLPRPRPRPHCQPRP | -0.102
44 | RRIRPRPPRLPRPRPRPNINPRP | -0.795
45 | RRIRQRPPRLPRPRPRPWSGPRP | 0.082
46 | RRIRTRPPRLPRPRPRPQTMPRP | -0.151
47 | RRIRPRPPRLPRPRPRPYGNPRP | -0.79
48 | RRIRKRPPRLPRPRPRPNFNPRP | -0.0705
49 | RRIRYRPPRLPRPRPRPSRAPRP | -0.113
50 | RRIRDRPPRLPRPRPRPDLIPRP | 0.126

Row | Sequence | shrunken log2 fold change
51 | RRIRDRPPRLPRPRPRPPISPRP | 0.024
52 | RRIRERPPRLPRPRPRPGYGPRP | -0.165
53 | RRIRSRPPRLPRPRPRPSRHPRP | 0.0757
54 | RRIRSRPPRLPRPRPRPARWPRP | 0.224
55 | RRIRTRPPRLPRPRPRPSIQPRP | -0.865
56 | RRIRERPPRLPRPRPRPFEIPRP | -0.203
57 | RRIRWRPPRLPRPRPRPDNYPRP | -0.00844
58 | RRIRGRPPRLPRPRPRPGNLPRP | -0.639
59 | RRIRDRPPRLPRPRPRPMCSPRP | 0.261
60 | RRIRLRPPRLPRPRPRPHQVPRP | 0.00465
61 | RRIRPRPPRLPRPRPRPSINPRP | -0.756
62 | RRIRKRPPRLPRPRPRPYGVPRP | 0.0715
63 | RRIRNRPPRLPRPRPRPTVKPRP | -0.00906
64 | RRIRGRPPRLPRPRPRPTGNPRP | 0.452
65 | RRIRVRPPRLPRPRPRPIIMPRP | 0.0741
66 | RRIRHRPPRLPRPRPRPMSTPRP | -0.12
67 | RRIRSRPPRLPRPRPRPMHTPRP | -0.139
68 | RRIRPRPPRLPRPRPRPADTPRP | 0.221
69 | RRIRPRPPRLPRPRPRPLFAPRP | 0.206
70 | RRIRQRPPRLPRPRPRPKMEPRP | -0.0177
71 | RRIRTRPPRLPRPRPRPICGPRP | 0.0749
72 | RRIRGRPPRLPRPRPRPQDQPRP | 0.531
73 | RRIRDRPPRLPRPRPRPITVPRP | -0.0979
74 | RRIRHRPPRLPRPRPRPLQRPRP | -0.187
75 | RRIRQRPPRLPRPRPRPPMLPRP | 0.117

Row | Sequence | shrunken log2 fold change
76 | RRIRFRPPRLPRPRPRPYMVPRP | -0.953
77 | RRIRYRPPRLPRPRPRPKDRPRP | -0.109
78 | RRIRDRPPRLPRPRPRPAHSPRP | -0.143
79 | RRIRYRPPRLPRPRPRPVMNPRP | -0.115
80 | RRIRYRPPRLPRPRPRPSKTPRP | -0.0513
81 | RRIRNRPPRLPRPRPRPYPVPRP | 0.00968
82 | RRIRCRPPRLPRPRPRPSQTPRP | -0.338
83 | RRIRCRPPRLPRPRPRPEYIPRP | -0.144
84 | RRIRDRPPRLPRPRPRPTLVPRP | 0.196
85 | RRIRKRPPRLPRPRPRPITPPRP | 0.0433
86 | RRIRHRPPRLPRPRPRPAVAPRP | 0.117
87 | RRIRMRPPRLPRPRPRPDPVPRP | -0.0377
88 | RRIRMRPPRLPRPRPRPQHTPRP | -0.0951
89 | RRIRMRPPRLPRPRPRPLMGPRP | -0.0985
90 | RRIRMRPPRLPRPRPRPQRFPRP | -0.0093
91 | RRIRARPPRLPRPRPRPDSCPRP | 0.156
92 | RRIRPRPPRLPRPRPRPIHGPRP | -0.00809
93 | RRIRGRPPRLPRPRPRPEGMPRP | 1.34
94 | RRIRARPPRLPRPRPRPQREPRP | 0.869
95 | RRIRKRPPRLPRPRPRPLNGPRP | 0.0417
96 | RRIRHRPPRLPRPRPRPTQMPRP | 0.222
97 | RRIRQRPPRLPRPRPRPMGTPRP | -0.00257
98 | RRIRVRPPRLPRPRPRPMAGPRP | -0.00674
99 | RRIRVRPPRLPRPRPRPGKLPRP | 0.126
100 | RRIRQRPPRLPRPRPRPQYNPRP | -1.1

Row | Sequence | shrunken log2 fold change
101 | RRIRNRPPRLPRPRPRPPWFPRP | 0.349
102 | RRIRRRPPRLPRPRPRPNNGPRP | -0.277
103 | RRIRVRPPRLPRPRPRPQYQPRP | -0.302
104 | RRIRCRPPRLPRPRPRPENIPRP | -1.32
105 | RRIRFRPPRLPRPRPRPDWHPRP | -0.152
106 | RRIRMRPPRLPRPRPRPDVSPRP | 2.14
107 | RRIRFRPPRLPRPRPRPYWCPRP | -0.399
108 | RRIRTRPPRLPRPRPRPEQVPRP | -0.00471
109 | RRIRGRPPRLPRPRPRPKFEPRP | 0.411
110 | RRIRFRPPRLPRPRPRPTCPPRP | 0.174
111 | RRIRRRPPRLPRPRPRPDIHPRP | -0.122
112 | RRIRNRPPRLPRPRPRPDCKPRP | -0.0698
113 | RRIRNRPPRLPRPRPRPMPFPRP | 0.00489
114 | RRIRDRPPRLPRPRPRPTYLPRP | 0.00451
115 | RRIRSRPPRLPRPRPRPGAAPRP | 0.603
116 | RRIRFRPPRLPRPRPRPWHHPRP | -0.325
117 | RRIRERPPRLPRPRPRPVYGPRP | -0.375
118 | RRIRRRPPRLPRPRPRPHGNPRP | 0.166
119 | RRIRTRPPRLPRPRPRPCTMPRP | -0.0721
120 | RRIRCRPPRLPRPRPRPYQKPRP | -0.0372
121 | RRIRNRPPRLPRPRPRPISRPRP | -0.612
122 | RRIRARPPRLPRPRPRPDIDPRP | 0.462
123 | RRIRSRPPRLPRPRPRPGSVPRP | -0.0129
124 | RRIRHRPPRLPRPRPRPTDNPRP | -0.177
125 | RRIRGRPPRLPRPRPRPSMFPRP | 0.554

Row | Sequence | shrunken log2 fold change
126 | RRIRNRPPRLPRPRPRPRNQPRP | -0.182
127 | RRIRWRPPRLPRPRPRPECLPRP | 0.444
128 | RRIRYRPPRLPRPRPRPRWNPRP | -0.102
129 | RRIRARPPRLPRPRPRPGMEPRP | 0.161
130 | RRIRSRPPRLPRPRPRPHAYPRP | 0.0215
131 | RRIRSRPPRLPRPRPRPWVFPRP | 0.0645
132 | RRIRSRPPRLPRPRPRPNSIPRP | -0.861
133 | RRIRRRPPRLPRPRPRPVPKPRP | 0.234
134 | RRIRRRPPRLPRPRPRPEDAPRP | 0.582
135 | RRIRNRPPRLPRPRPRPGRVPRP | 0.296
136 | RRIRERPPRLPRPRPRPMFRPRP | -0.737
137 | RRIRKRPPRLPRPRPRPNQTPRP | 0.00514
138 | RRIRWRPPRLPRPRPRPFQDPRP | -0.496
139 | RRIRWRPPRLPRPRPRPGGQPRP | -0.0831
140 | RRIRDRPPRLPRPRPRPFEYPRP | -0.00586
141 | RRIRARPPRLPRPRPRPYEHPRP | -0.25
142 | RRIRRRPPRLPRPRPRPNTTPRP | -0.283
143 | RRIRPRPPRLPRPRPRPRNYPRP | 0.000451
144 | RRIRHRPPRLPRPRPRPGWGPRP | 0.0673
145 | RRIRSRPPRLPRPRPRPLMAPRP | 0.000235
146 | RRIRLRPPRLPRPRPRPYVNPRP | -0.23
147 | RRIRGRPPRLPRPRPRPIQFPRP | -0.146
148 | RRIRDRPPRLPRPRPRPEAMPRP | -0.00943
149 | RRIRIRPPRLPRPRPRPFDLPRP | -0.348
150 | RRIRQRPPRLPRPRPRPQFRPRP | -0.0194
